First the molecules themselves.
T1: P. falciparum aldolase (P. falciparum, UniProt Q7KQL9 1-369)
T1 construct: also called fructose 1,6-bisphosphate aldolase; parasite aldolase; source: prepared as described previously [42]
T1 sequence (looked up): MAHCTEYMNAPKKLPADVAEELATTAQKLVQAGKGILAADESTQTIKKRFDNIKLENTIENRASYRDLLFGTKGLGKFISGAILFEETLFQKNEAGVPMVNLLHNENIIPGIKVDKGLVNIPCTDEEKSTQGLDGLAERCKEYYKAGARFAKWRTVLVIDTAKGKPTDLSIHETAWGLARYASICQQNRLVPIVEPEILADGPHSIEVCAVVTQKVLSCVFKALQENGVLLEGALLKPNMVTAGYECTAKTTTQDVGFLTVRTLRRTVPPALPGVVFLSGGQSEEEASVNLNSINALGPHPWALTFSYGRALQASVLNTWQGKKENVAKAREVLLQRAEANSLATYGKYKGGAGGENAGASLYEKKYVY

B1: MTRAP CTD short C-terminal peptide (printed residues 479–498) (peptide)
peptide: Biotin-ALKGKDNKAMDEEEFWALE
notes: source: synthetic peptide; bought: Biomatik, USA
B2: EBA140 CTD (1155–1210) (peptide)
peptide: Biotin-RMGKSNEEYDIGESNIEATFEENNYLNKLSRIFNQEVQETNISDYSEYNYNEKNMY
notes: also called EBA140 unmodified; source: synthetic peptide; bought: Biomatik, USA
B3: RH4 CTD (1650–1716) (peptide)
peptide: Biotin-KNSNEPHHIFNIFQKEFSEADNAHSEEKEEYLPVYFDEVEDEVEDEVEDEDENENEVENENEDFNDI
notes: also called RH4 unmodified; source: synthetic peptide; bought: Biomatik, USA
B4: EBA181 CTD (1511–1567) (peptide)
peptide: Biotin-RKNLDDEKGFYDSNLNDSAFEYNNNKYNKLPYMFDQQINVVNSDLYSEGIYDDTTTF
notes: also called EBA181 unmodified; source: synthetic peptide; bought: Biomatik, USA
B5: EBA175 CTD (1445–1502) (peptide)
peptide: Biotin-KYQSSEGVMNENNENNFLFEVTDNLDKLSNMFNQQVQETNINDFSEYHEDINDINFKK
notes: also called EBA175 unmodified; source: synthetic peptide; bought: Biomatik, USA
B6: RH2B CTD (3211–3254) (peptide)
peptide: Biotin-DRSNKDECDFDMCEEVNNNDHLSNYADKEEIIEIVFDENEEKYF
modifications: cysteine pairing not given here
notes: also called RH2B unmodified; source: synthetic peptide; bought: Biomatik, USA
B7: TRAP full length CTD (530–574) (peptide)
peptide: Biotin-YKFVVPGAATPYAGEPAPFDETLGEEDKDLDEPEQFRLPEENEWN
notes: as for B1
B8: AMA1 full length CTD (567–622) (peptide)
peptide: Biotin-YKRKGNAEKYDKMDEPQDYGKSNSRNDEMLDPEASFWGEEKRASHTTPVLMEKPYY
notes: as for B1
B9: MTRAP full length CTD (452–498), synthetic biotinylated peptide (peptide)
peptide: Biotin-YFLRKEKTEKVVQEETKEENFEVMFNDDALKGKDNKAMDEEEFWALE
notes: as for B1
B10: EBA181 CTD phosphorylated at S1523 and S1528 (peptide)
peptide: Biotin-RKNLDDEKGFYD[pS]NLND[pS]AFEYNNNKYNKLPYMFDQQINVVNSDLYSEGIYDDTTTF
notes: source: phosphorylated synthetic peptide (Biomatik) or peptide phosphorylated in vitro
B11: EBA140 CTD, phosphorylated (peptide)
peptide: Biotin-RMGKSNEEYDIGESNIEATFEENNYLNKLSRIFNQEVQETNISDYSEYNYNEKNMY
modifications: also: phosphorylated, exact sites not determined
notes: also called EBA140 phosphorylated; source: phosphorylated synthetic peptide (Biomatik) or peptide phosphorylated in vitro
B12: AMA1 CTD phosphorylated at Ser-610 (peptide)
peptide: Biotin-YKRKGNAEKYDKMDEPQDYGKSNSRNDEMLDPEASFWGEEKRASHTTPVLMEKPYY
modifications: not fully specified (residue 44)
notes: as for B10
B13: RH2B CTD phosphorylated at S3233 (peptide)
peptide: Biotin-DRSNKDECDFDMCEEVNNNDHL[pS]NYADKEEIIEIVFDENEEKYF
modifications: cysteine pairing not given here
notes: as for B10
B14: MTRAP CTD phosphorylated at Thr-467 (peptide)
peptide: Biotin-YFLRKEKTEKVVQEE[pT]KEENFEVMFNDDALKGKDNKAMDEEEFWALE
notes: as for B10
B15: EBA175 CTD phosphorylated at T1483 and S1489 (peptide)
peptide: Biotin-KYQSSEGVMNENNENNFLFEVTDNLDKLSNMFNQQVQE[pT]NINDF[pS]EYHEDINDINFKK
notes: as for B10
B16: MTRAP CTD phosphorylated at Thr-459 and Thr-467 (peptide)
peptide: Biotin-YFLRKEK[pT]EKVVQEE[pT]KEENFEVMFNDDALKGKDNKAMDEEEFWALE
notes: as for B10
B17: MTRAP CTD phosphorylated at Thr-459 (peptide)
peptide: Biotin-YFLRKEK[pT]EKVVQEETKEENFEVMFNDDALKGKDNKAMDEEEFWALE
notes: as for B10
B18: RH4 CTD phosphorylated at S1667 or S1674 (peptide)
peptide: Biotin-KNSNEPHHIFNIFQKEFSEADNAHSEEKEEYLPVYFDEVEDEVEDEVEDEDENENEVENENEDFNDI
modifications: also: one phosphate at either Ser1667 (pos 18) or Ser1674 (pos 25)
notes: as for B10

This is an account of results in publication PMC5015959, “The Binding of Plasmodium falciparum Adhesins and Erythrocyte Invasion Proteins to Aldolase Is Enhanced by Phosphorylation” (PLoS ONE, 2016).

Where a SMILES comes first, the peptide text is derived from it. Where no end group is shown, it is not given here. [ ]: non-standard residue; d: D form. The star is where a group is joined. Biotin = O=C1N[C@H]2[C@H](CS[C@H]2CCCCC(=O)*)N1; pT = C[C@@H](OP(=O)(O)O)[C@H](N)C(=O)O; pS = N[C@@H](COP(=O)(O)O)C(=O)O

The target of one test is T1, P. falciparum aldolase. The test can be described thus: BLI; competition: biotinylated AMA1 or RH4 CTD on streptavidin sensor, fixed aldolase (70 μM for AMA1, 20 μM for RH4) with increasing unlabelled MTRAP CTD peptide; Octet Red; duplicate. The note with it: both partners purified. (In general: In BLI a coated tip is dipped into the sample, and binding shifts an interference pattern.)
As for YFLRKEKTEKVVQEETKEENFEVMFNDDALKGKDNKAMDEEEFWALE [unlabelled competitor MTRAP CTD peptide], the “percent reduction of aldolase binding to RH4 CTD at a 5-fold molar excess of MTRAP to aldolase” value stood at 56%.

A further test addresses T2, P. falciparum aldolase (Plasmodium falciparum, UniProt Q7KQL9).
T2 construct: made in house
Put plainly: biochemical. In kind it is binding. The note with it: biolayer interferometry, Octet Red. The text has this:
CTDs of four classes of type 1 membrane protein (AMA1 and the TRAP, EBL and RH families) that are potential adhesins or host cell invasion proteins derived from apical organelles, and present in the merozoite plasma membrane during invasion, were examined for their ability to bind to aldolase using bio-layer interferometry. Streptavidin-coated biosensors were loaded with biotinylated synthetic peptides or recombinant proteins representing either the full length CTDs or shorter C-terminal sequences (Table 1) and titrated with increasing aldolase concentrations. This analysis enabled the calculation of a dissociation constant (Kd) for each pair of proteins as a measure of the strength of interaction between them.
The effect of the CTD phosphorylation on aldolase binding was investigated using biolayer interferometry using phosphorylated synthetic peptides or peptides phosphorylated in vitro (Table 3).
Protein interactions were analysed by biolayer interferometry using the Octet Red system (ForteBio) at 25°C in 96-well microplates, as described previously. All assays were performed in 100 mM Tris-HCl pH 8.0, according to the manufacturer’s instructions. A baseline was established over 1 min, and biotinylated samples were loaded onto streptavidin sensors for 1 min. The sensors were washed for 1 min and then incubated with aldolase at different concentrations (0.05–250 μM) for 1 min, followed by a dissociation phase over 5 min. The experiments were performed in duplicate or triplicate depending on the experiment. The data were analysed as described previously.
Regarding `CSCC[C@H](NC(=O)[C@H](CC(C)C)NC(=O)[C@@H](NC(=O)CCCC[C@@H]1SC[C@@H]2NC(=O)N[C@@H]21)C(C)C)C(=O)N[C@@H](CCC(=O)O)C(=O)N[C@@H](CCCCN)C(=O)N1CCC[C@H]1C(=O)N[C@@H](Cc1ccc(O)cc1)C(=O)N[C@@H](Cc1ccc(O)cc1)C(=O)O` [AMA1 555–562] (Biotin-VLMEKPYY-OH; C-terminus assumed), the “binding to aldolase (in words)” value was “did not bind”.
Same read-out and setting: the same measure for `CC[C@H](C)[C@H](NC(=O)[C@H](Cc1c[nH]cn1)NC(=O)[C@H](Cc1ccc(O)cc1)NC(=O)CCCC[C@@H]1SC[C@@H]2NC(=O)N[C@@H]21)C(=O)N[C@@H](Cc1ccccc1)C(=O)N[C@@H](Cc1ccc(O)cc1)C(=O)N[C@@H](CCCCN)C(=O)N[C@@H](CCCNC(=N)N)C(=O)N[C@@H](CCCCN)C(=O)NCC(=O)N[C@@H](C)C(=O)N[C@@H](CCC(=O)O)C(=O)N[C@@H](CCCCN)C(=O)N[C@@H](CCC(=O)O)C(=O)N[C@@H](CC(C)C)C(=O)N[C@@H](Cc1ccc(O)cc1)C(=O)N[C@@H](CCC(=O)O)C(=O)N[C@@H](CC(N)=O)C(=O)N[C@H](C(=O)N[C@@H](C)C(=O)NCC(=O)N[C@@H](CCCNC(=N)N)C(=O)N[C@@H](Cc1ccc(O)cc1)C(=O)N[C@@H](CCSC)C(=O)N[C@@H](Cc1ccc(O)cc1)C(=O)N[C@@H](CC(=O)O)C(=O)O)C(C)C` [PTRAMP, reference compound] (Biotin-YHIFYKRKGAEKELYENVAGRYMYD-OH; C-terminus assumed): “does not bind”; for “Biotin-KTNSGDNNSNEINEAFEPNDDVLFKEKDEIIEITFNDNDSTI [RH2A]”: “did not bind at all”.

The same test, now with this note: phosphorylated versus unmodified CTD, from Kd values of Table 3.
For “Biotin-DRSNKDECDFDMCEEVNNNDHLSNYADKEEIIEIVFDENEEKYF (cysteines drawn unpaired) [RH2B]”, the “increase in affinity for aldolase following phosphorylation” value was determined as 11 fold.

Still in this test, the particulars now being: same assay as the Kd column; symbol * = no binding.
Molecule `CSCC[C@H](NC(=O)[C@H](CC(C)C)NC(=O)[C@@H](NC(=O)CCCC[C@@H]1SC[C@@H]2NC(=O)N[C@@H]21)C(C)C)C(=O)N[C@@H](CCC(=O)O)C(=O)N[C@@H](CCCCN)C(=O)N1CCC[C@H]1C(=O)N[C@@H](Cc1ccc(O)cc1)C(=O)N[C@@H](Cc1ccc(O)cc1)C(=O)O` [AMA1 555–562] (Biotin-VLMEKPYY-OH; C-terminus assumed) came in with an equilibrium dissociation constant (Kd) greater than 250 µM.
On the same count and under the same terms, the same measure for “Biotin-KTNSGDNNSNEINEAFEPNDDVLFKEKDEIIEITFNDNDSTI [RH2A]”: greater than 250 µM.

Another test deals with RH1 full length CTD (2921–2971) (P. falciparum). Put plainly: BLI.
Settings: not given
For “P. falciparum aldolase (from UniProt Q7KQL9 1-369) (enzyme)”, the equilibrium dissociation constant (Kd) stood at 6.1 µM.

Another test addresses RH1 CTD phosphorylated at S2950 or T2951 (P. falciparum). Put plainly: BLI.
Settings: not given
As to “P. falciparum aldolase (from UniProt Q7KQL9 1-369) (enzyme)”, the dissociation constant Kd was determined as 2.5 µM.

The target in a further test is T1, P. falciparum aldolase. Put plainly: BLI. The conditions noted are these: both partners purified.
B1 gave a dissociation constant (Kd) of 17 µM.
For the molecule B2, the Kd worked out at 83 µM.
Same read-out and setting: the same measure for B3: 3.5 µM; for B4: 130 µM.
Still for that read-out and setting: the same measure for B5: 96 µM; for B6: 125 µM.
The same measure, in the same setting: the same measure for B7: 5 µM.
B8 had a Kd of 53 µM.
Still for that read-out and setting: the same measure for B9: 13.8 µM.

The target in the next test is T1, P. falciparum aldolase. Put plainly: BLI. The note with it: both partners purified. The source holds these as a separate data set.
B10 registered a Kd of 4.7 µM.
Same read-out and setting: the same measure for B11: 35 µM; for B12: 44 µM; for B13: 11 µM.
Same read-out and setting: the same measure for B14: 1.9 µM.
Take B15: the Kd was 38 µM.
The same measure, in the same setting: the same measure for B16: 0.9 µM; for B17: 3.5 µM.
The same measure, in the same setting: the same measure for B18: 2.5 µM.

By Kd is commonly meant the constant that tells how readily two partners part at equilibrium.
